Laboratory results reported in patent publication US11535650 (RA PHARMACEUTICALS, dated 2022).
Starred links: 1 amine or outer side, 2 acyl side, 3 side chain; linkers in the order of their positions; H or OH if unused. Positions of bridges follow the written chain, without caps; N, C: chain ends. Non-standard residues stand in square brackets, D forms with d. Primed or numbered codes have the meaning given here. No end group written: not given here. Tyr(OMe) = O-methyl tyrosine, COc1ccc(C[C@H](N[*:1])C(=O)[*:2])cc1; mXylyl(5) = bridging moiety between the two residues (meta-xylyl); mXylyl = bridging moiety between residues (mXylyl(i,j)); Trp(5-F) = N[C@@H](Cc1c[nH]c2ccc(F)cc12)C(=O)O; Trp(7-aza) = N[C@@H](Cc1c[nH]c2ncccc12)C(=O)O; mXylyl(4) = bridging moiety between residues; NMePhe(4-F) = CN[C@@H](Cc1ccc(F)cc1)C(=O)O; PEG2000 = polyethylene glycol, 2000 Da; Phe(4-F) = N[C@@H](Cc1ccc(F)cc1)C(=O)O; Phg(2-OMe) = COc1ccccc1[C@H](N)C(=O)O; mXylylene = c1cc(C[*:1])cc(C[*:2])c1; oXylylene = c1ccc(C[*:2])c(C[*:1])c1; pXylylene = c1cc(C[*:2])ccc1C[*:1]; hPhe = N[C@@H](CCc1ccccc1)C(=O)O; dChg = N[C@@H](C(=O)O)C1CCCCC1; Chg = N[C@H](C(=O)O)C1CCCCC1; Phg = N[C@H](C(=O)O)c1ccccc1; Tle = CC(C)(C)[C@H](N)C(=O)O; NMeS = CN[C@@H](CO)C(=O)O; NMeA = CN[C@@H](C)C(=O)O; Nva = CCC[C@H](N)C(=O)O; Sar = CNCC(=O)O

B1: R3048 (peptide)
peptide: Ac-CVERFCDVYWEF-NH2
modifications: linker 1-6 via mXylyl(5)
B2: R3083 (peptide)
peptide: Ac-VC[Phg]T[Trp(7-aza)]EY[NMeS]AC[Nva]-NH2
modifications: linker 2-10 via mXylyl(5)
B3: R3086 (peptide)
peptide: Ac-[Nva]SYEC[Tle]Y[Trp(7-aza)]EYP[Chg]C[Nva]-NH2
modifications: linker 5-13 via mXylyl(5)
B4: R3006 (peptide)
peptide: Ac-YEN[Tle]Y[Trp(7-aza)]EY[Sar][Nva][NMeS]-NH2
SMILES: CCC[C@H](NC(=O)CN(C)C(=O)[C@H](Cc1ccc(O)cc1)NC(=O)[C@H](CCC(=O)O)NC(=O)[C@H](Cc1c[nH]c2ncccc12)NC(=O)[C@H](Cc1ccc(O)cc1)NC(=O)[C@@H](NC(=O)[C@H](CC(N)=O)NC(=O)[C@H](CCC(=O)O)NC(=O)[C@H](Cc1ccc(O)cc1)NC(C)=O)C(C)(C)C)C(=O)N(C)[C@@H](CO)C(N)=O
B5: R3088 (peptide)
peptide: Ac-[Nva]C[Phg]T[Trp(5-F)]EY[NMeS]AC[Nva]-NH2
modifications: linker 2-10 via mXylyl(5)
B6: R3077 (peptide)
peptide: Ac-[Nva][Nva]YEN[Tle]Y[Trp(7-aza)]EYP[Chg][Nva]K
modifications: not fully specified (residue 14, C-terminus); printed as Ac-Nvl-Nvl-Y-E-N-Tbg-Y-azaTrp-E-Y-P-Chg-Nvl-K-(PEG2000) NH2; also: PEG2000 at C-terminal Lys, attachment site unstated
B7: R3042 (peptide)
peptide: Ac-[Nva]C[Phg]T[Trp(7-aza)]EY[NMeS]HC[Nva]-NH2
modifications: bridge 2-10
B8: R3004 (peptide)
peptide: Ac-[Nva]CYNN[Tle]E[Trp(7-aza)]EYP[Phg][Tle]-NH2
SMILES: CCC[C@H](NC(C)=O)C(=O)N[C@@H](CS)C(=O)N[C@@H](Cc1ccc(O)cc1)C(=O)N[C@@H](CC(N)=O)C(=O)N[C@@H](CC(N)=O)C(=O)N[C@H](C(=O)N[C@@H](CCC(=O)O)C(=O)N[C@@H](Cc1c[nH]c2ncccc12)C(=O)N[C@@H](CCC(=O)O)C(=O)N[C@@H](Cc1ccc(O)cc1)C(=O)N1CCC[C@H]1C(=O)N[C@H](C(=O)N[C@H](C(N)=O)C(C)(C)C)c1ccccc1)C(C)(C)C
B9: R3093 (peptide)
peptide: Ac-[Nva]C[dChg]T[Trp(7-aza)]EY[NMeS]AC[Nva]-NH2
modifications: linker 2-10 via mXylyl(4)
B10: R3080 (peptide)
peptide: Ac-[Nva]C[Phg]T[Trp(7-aza)]EY[NMeS]C[Nva]-NH2
modifications: linker 2-9 via mXylyl(5)
B11: R3087 (peptide)
peptide: Ac-[Nva]C[Phg(2-OMe)]T[Trp(7-aza)]EY[NMeS]HC[Nva]-NH2
modifications: linker 2-10 via mXylyl(5)
B12: R3007 (peptide)
peptide: Ac-[Nva]CKE[Phg]YC[NMeS][Tle]K[Trp(7-aza)]EY-NH2
modifications: linker 2-7 via mXylyl
B13: R3045 (peptide)
peptide: MCVERFCDVY-NH2
modifications: linker 2-7 via mXylyl
B14: R3058 (peptide)
peptide: Ac-[Nva]C[Chg]T[Trp(7-aza)]EY[NMeS]HC[Nva]-NH2
modifications: linker 2-10 via pXylylene
B15: R3049 (peptide)
peptide: Ac-[Nva]C[Phg]T[Trp(7-aza)]EY[NMeS]HC[Nva]-NH2
modifications: linker 2-10 via oXylylene
B16: R3044 (peptide)
peptide: MCVERFCDVYW-NH2
modifications: linker 2-7 via mXylyl
B17: R3051 (peptide)
peptide: [Nva]CY[NMeS][Phg][NMePhe(4-F)][NMeS]H[NMePhe(4-F)][Sar]C-NH2
modifications: linker 2-11 via mXylyl(5)
B18: R3074 (peptide)
peptide: Ac-[Nva]C[Phg]T[Trp(7-aza)]E[Tyr(OMe)][NMeS]HC[Nva]-NH2
modifications: linker 2-10 via mXylyl(5)
B19: R3089 (peptide)
peptide: Ac-[Chg]C[Phg]T[Trp(7-aza)]EY[NMeS]AC[Nva]-NH2
modifications: linker 2-10 via mXylyl(4)
B20: R3053 (peptide)
peptide: [Nva]CCN[Tle][Phg]C[Tle][NMeS]C[Tle]-NH2
modifications: linker (positions not given here) via mXylylene; also: mXylyl-bicyclo: Cys pairing not given here
B21: R3046 (peptide)
peptide: MCVERFCDV-NH2
modifications: linker 2-7 via mXylyl(5)
B22: R3065 (peptide)
peptide: Ac-[Nva]C[Phg]T[Trp(7-aza)]EYPHC[Nva]-NH2
modifications: linker 2-10 via pXylylene
B23: R3047 (peptide)
peptide: MCVERFC-NH2
modifications: linker 2-7 via mXylyl(5)
B24: R3072 (peptide)
peptide: Ac-[Nva][Nva]YEN[Tle]Y[Trp(7-aza)]EYP[Chg][Nva]K-NH2
SMILES: CCC[C@H](NC(C)=O)C(=O)N[C@@H](CCC)C(=O)N[C@@H](Cc1ccc(O)cc1)C(=O)N[C@@H](CCC(=O)O)C(=O)N[C@@H](CC(N)=O)C(=O)N[C@H](C(=O)N[C@@H](Cc1ccc(O)cc1)C(=O)N[C@@H](Cc1c[nH]c2ncccc12)C(=O)N[C@@H](CCC(=O)O)C(=O)N[C@@H](Cc1ccc(O)cc1)C(=O)N1CCC[C@H]1C(=O)N[C@H](C(=O)N[C@@H](CCC)C(=O)N[C@@H](CCCCN)C(N)=O)C1CCCCC1)C(C)(C)C
B25: R3092 (peptide)
peptide: Ac-[Nva]C[Phg]TFEY[NMeS]AC[Nva]-NH2
modifications: linker 2-10 via mXylyl(4)
B26: R3075 (peptide)
peptide: [Nva]CY[NMeS][Phg][NMePhe(4-F)][NMeS]H[NMePhe(4-F)]GC-NH2
modifications: linker 2-11 via mXylyl(5)
B27: R3095 (peptide)
peptide: Ac-[Nva]C[Phg]T[Trp(7-aza)]E[hPhe][NMeS]AC[Nva]-NH2
modifications: linker 2-10 via mXylyl(4)
B28: R3005 (peptide)
peptide: Ac-[Nva]CY[Trp(7-aza)][Sar][Tle][Nva][Trp(7-aza)]EYP[Phg]P-NH2
SMILES: CCC[C@H](NC(C)=O)C(=O)N[C@@H](CS)C(=O)N[C@@H](Cc1ccc(O)cc1)C(=O)N[C@@H](Cc1c[nH]c2ncccc12)C(=O)N(C)CC(=O)N[C@H](C(=O)N[C@@H](CCC)C(=O)N[C@@H](Cc1c[nH]c2ncccc12)C(=O)N[C@@H](CCC(=O)O)C(=O)N[C@@H](Cc1ccc(O)cc1)C(=O)N1CCC[C@H]1C(=O)N[C@H](C(=O)N1CCC[C@H]1C(N)=O)c1ccccc1)C(C)(C)C
B29: R3073 (peptide)
peptide: Ac-[Nva]C[Phg]T[Trp(7-aza)]E[Phe(4-F)][NMeS]HC[Nva]-NH2
modifications: linker 2-10 via mXylyl(5)
B30: R3057 (peptide)
peptide: MCVERFCD[Tle]Y[Trp(7-aza)]EYP[Phg][Nva]-NH2
modifications: linker 2-7 via mXylyl(5)
B31: R3091 (peptide)
peptide: Ac-[Nva]C[Phg]TWEY[NMeS]AC[Nva]-NH2
modifications: linker 2-10 via mXylyl(4)
B32: R3052 (peptide)
peptide: [Nva]CY[Tle][Phg]N[Sar]LC[Phg][NMeA]-NH2
modifications: linker 2-9 via mXylyl(5)
B33: R3084 (peptide)
peptide: Ac-[Nva]C[Phg]T[Trp(7-aza)]EYSAC[Nva]-NH2
modifications: linker 2-10 via mXylyl(5)
B34: R3078 (peptide)
peptide: PEG2000-[Nva][Nva]YEN[Tle]Y[Trp(7-aza)]EYP[Phg][Nva]-NH2
B35: R3090 (peptide)
peptide: Ac-[Nva]CFT[Trp(7-aza)]EY[NMeS]AC[Nva]-NH2
modifications: linker 2-10 via mXylyl(4)

Target: human C5 protein (human, UniProt P01031 19-673; P01031 678-1676)
Assay: cell-based or functional assay

Binder | Avg. IC50, human hemolysis assay (complete human sera) [nM]
B1 | 19.3
B2 | > 25000
B3 | > 50000
B4 | 267
B5 | > 100000
B6 | 81.7
B7 | > 100000
B8 | 53.5
B9 | > 100000
B10 | > 50000
B11 | > 25000
B12 | 314
B13 | > 100000
B14 | > 10000
B15 | > 3100
B16 | > 50000
B17 | > 100000
B18 | 308

Binder | Avg. IC50, human hemolysis assay (complete human sera) [nM]
B19 | > 15000
B20 | > 100000
B21 | > 100000
B22 | 394
B23 | > 100000
B24 | 26.9
B25 | > 50000
B26 | > 75000
B27 | > 50000
B28 | 66.7
B29 | 403
B30 | 12.4
B31 | 483
B32 | > 100000
B33 | > 100000
B34 | 568
B35 | > 100000
